In the supplement of paper PMC7125110:
± gives the standard error. This sample holds only a part of the variants without activity.

B1: glmS ribozyme (parent)
chain: AUAAAAGCGCCAGAACUACAGAAAUGUAGUUGACGAGGAGGAGGUUUAUCGAAUUUUCGGCGGAUGCCUCCAAA

Columns and labels:
Settings in all cases: with glucosamine-6-phosphate
glucosamine-6-phosphate [1] = variants of: B1; test: self-cleavage kobs at 40 uM GlcN6P; higher = faster cleavage; RNA array
Procedure, shortened: (§1)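 Tiles bearing barcoded ribozyme variants, transcribed in situ by E. coli RNA polymerase on sequenced MiSeq chips, were imaged over ~14 h at 37 °C using a hybridised Cy3 probe. Glucosamine-6-phosphate was supplied at 40 μM to 10 mM in HEPES/KCl/Mg(OAc)2 buffer. kobs came from one- or two-exponential decay fits to normalised per-tile medians, and weighted Michaelis–Menten fits then provided kcat and KM.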

glucosamine-6-phosphate [2] = variants of: B1; test: self-cleavage kobs at 640 uM GlcN6P; higher = faster cleavage; RNA array
Procedure, shortened: as §1

glucosamine-6-phosphate [3] = variants of: B1; test: self-cleavage kobs at 2500 uM GlcN6P; higher = faster cleavage; RNA array
Procedure, shortened: as §1

glucosamine-6-phosphate [4] = variants of: B1; test: self-cleavage kobs at 10000 uM GlcN6P; higher = faster cleavage; RNA array
Procedure, shortened: as §1

glucosamine-6-phosphate [5] = variants of: B1; test: self-cleavage kobs at 160 uM GlcN6P; higher = faster cleavage; RNA array
Procedure, shortened: as §1

Variant | self-cleavage kobs at 40 uM GlcN6P (glucosamine-6-phosphate [1]) [s⁻¹] | self-cleavage kobs at 640 uM GlcN6P (glucosamine-6-phosphate [2]) [s⁻¹] | self-cleavage kobs at 2500 uM GlcN6P (glucosamine-6-phosphate [3]) [s⁻¹] | self-cleavage kobs at 10000 uM GlcN6P (glucosamine-6-phosphate [4]) [s⁻¹] | self-cleavage kobs at 160 uM GlcN6P (glucosamine-6-phosphate [5]) [s⁻¹]
A42U U49G U57A C61G | < 1e-05 | < 1e-05 | < 1e-05 | < 1e-05 | –
G38U U56G C61A C68G | 0.000276 ± 7.7e-05 | – | – | 6.19e-05 ± 2.1e-05 | –
A52U C58U | < 1e-05 | < 1e-05 | < 1e-05 | < 1e-05 | < 1e-05
C11U U49G C58U G60C | < 1e-05 | – | < 1e-05 | – | –
G13U A42C A53C C68A | < 1e-05 | – | – | – | –
C10U C16G G29U | < 1e-05 | – | – | – | –
G9C U45G | < 1e-05 | < 1e-05 | < 1e-05 | – | < 1e-05
C10A U47G G63C C68G | 9.61e-05 ± 3.8e-05 | – | – | – | –
G7A A12U A52U | < 1e-05 | – | – | – | –
C19U G38A | < 1e-05 | – | – | – | –
U46G U54C | 0.00019 ± 3.4e-05 | – | – | 0.00687 ± 0.0018 | –
A24C A48C G62U G63U C70G | < 1e-05 | – | – | < 1e-05 | –
C8A U57A G63A | < 1e-05 | – | < 1e-05 | – | –
C8U U30C | < 1e-05 | < 1e-05 | < 1e-05 | < 1e-05 | < 1e-05
C8A C10A G44U U46A C67A | < 1e-05 | – | < 1e-05 | – | –
C8U C68G | 0.000619 ± 0.00023 | – | – | 0.000231 ± 5.8e-05 | –
G35C A39C U49A A53U | < 1e-05 | – | – | – | –
A12G A33G U57G | < 1e-05 | – | – | – | –
C8A A36G | < 1e-05 | < 1e-05 | < 1e-05 | < 1e-05 | < 1e-05
G7C C16A | < 1e-05 | < 1e-05 | < 1e-05 | < 1e-05 | < 1e-05
A6G A14U U31A U57G | < 1e-05 | < 1e-05 | – | < 1e-05 | < 1e-05
C16A G62U | < 1e-05 | < 1e-05 | – | – | < 1e-05
U46G G60U | < 1e-05 | – | – | < 1e-05 | < 1e-05

Variant | self-cleavage kobs at 40 uM GlcN6P (glucosamine-6-phosphate [1]) [s⁻¹] | self-cleavage kobs at 640 uM GlcN6P (glucosamine-6-phosphate [2]) [s⁻¹] | self-cleavage kobs at 2500 uM GlcN6P (glucosamine-6-phosphate [3]) [s⁻¹] | self-cleavage kobs at 10000 uM GlcN6P (glucosamine-6-phosphate [4]) [s⁻¹] | self-cleavage kobs at 160 uM GlcN6P (glucosamine-6-phosphate [5]) [s⁻¹]
G32U U49C | < 1e-05 | < 1e-05 | < 1e-05 | – | < 1e-05
A6G U31A G44U C67G | < 1e-05 | < 1e-05 | – | – | –
A36C G41A | < 1e-05 | < 1e-05 | < 1e-05 | < 1e-05 | < 1e-05
G41U C50A U57A | < 1e-05 | – | – | < 1e-05 | –
C8A G35C A48C G60A | < 1e-05 | – | – | – | –
G32C G35A G51U | < 1e-05 | – | < 1e-05 | < 1e-05 | –
C34A A64C | < 1e-05 | < 1e-05 | < 1e-05 | < 1e-05 | –
A42G C71A | 0.000338 ± 7.5e-05 | 0.00207 ± 0.00033 | 0.00316 ± 0.0013 | 0.0105 ± 0.003 | 0.000606 ± 0.00021
A6C G7U | < 1e-05 | < 1e-05 | < 1e-05 | < 1e-05 | < 1e-05
C10A U49A | < 1e-05 | < 1e-05 | – | – | < 1e-05
U30C A36C U69G | 0.000181 ± 7.1e-05 | 0.000264 ± 0.00013 | – | – | –
U65C C70A | < 1e-05 | – | – | – | < 1e-05
G7U A36G | < 1e-05 | < 1e-05 | < 1e-05 | < 1e-05 | –
A53U U69C | 0.000317 ± 6.8e-05 | 0.00104 ± 0.0003 | – | 0.00288 ± 0.00074 | 0.000141 ± 5.3e-05
C16G G59C | < 1e-05 | < 1e-05 | < 1e-05 | < 1e-05 | < 1e-05
G9A G13C U45G U57A | < 1e-05 | – | – | < 1e-05 | –
G29C G32C U57G | < 1e-05 | – | – | – | –
G9U A36U | < 1e-05 | < 1e-05 | – | < 1e-05 | –
C34G U47G C68G | 0.000102 ± 2.7e-05 | 8.76e-05 ± 2.5e-05 | 7.01e-05 ± 2.4e-05 | 7.34e-05 ± 1.5e-05 | 0.000631 ± 0.00031
G38U U57G C68A U69A | 6.8e-05 ± 3e-05 | – | – | 5.25e-05 ± 2e-05 | –
C34G U45G C70A | < 1e-05 | – | < 1e-05 | < 1e-05 | < 1e-05
A6U A15U G63A C70U | < 1e-05 | – | – | – | –
U45C C58A | < 1e-05 | – | – | – | < 1e-05
